Measured values published in publication PMC9482650, “Quantitative fragmentomics allow affinity mapping of interactomes” (Nature Communications, 2022).

Assays:
Experiment in all cases: holdup assay
Design in all cases: key: below the threshold = too weak to quantify, mostly under pKd 3.1 to 4
DLG5_1, Q8TDM6 = target: DLG5_1, Q8TDM6
HTRA1, Q92743 = target: HTRA1, Q92743
RADIL, Q96JH8 = target: T1, RADIL, Q96JH8
T1 sequence (Q96JH8 971-1071, limits assumed, looked up): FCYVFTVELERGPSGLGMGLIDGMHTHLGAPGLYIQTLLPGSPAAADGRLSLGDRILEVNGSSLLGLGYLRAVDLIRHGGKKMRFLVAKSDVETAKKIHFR

HTRA4, P83105 = target: T2, HTRA4, P83105
T2 sequence (P83105 378-476, limits assumed, looked up): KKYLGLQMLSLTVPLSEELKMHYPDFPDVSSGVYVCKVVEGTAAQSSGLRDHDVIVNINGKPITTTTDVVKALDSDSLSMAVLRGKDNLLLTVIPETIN

FRMPD4, Q14CM0 = target: FRMPD4, Q14CM0
PDZRN3_1, Q9UPQ7 = target: T3, PDZRN3_1, Q9UPQ7
T3 sequence (Q9UPQ7 244-349, limits assumed, looked up): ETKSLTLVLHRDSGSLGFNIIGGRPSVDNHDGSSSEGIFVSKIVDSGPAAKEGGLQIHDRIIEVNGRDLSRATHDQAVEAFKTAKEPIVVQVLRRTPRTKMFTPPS

MPP6, Q9NZW5 = target: T4, MPP6, Q9NZW5
T4 sequence (Q9NZW5 125-219, limits assumed, looked up): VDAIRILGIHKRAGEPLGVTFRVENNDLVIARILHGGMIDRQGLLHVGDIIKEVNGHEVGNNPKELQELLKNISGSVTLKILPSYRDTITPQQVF

SNTB1, Q13884 = target: T5, SNTB1, Q13884
T5 sequence (Q13884 107-205, limits assumed, looked up): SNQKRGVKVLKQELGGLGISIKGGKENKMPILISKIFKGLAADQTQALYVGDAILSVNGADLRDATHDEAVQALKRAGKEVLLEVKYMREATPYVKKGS

MPDZ_12, O75970 = target: T6, MPDZ_12, O75970
T6 sequence (O75970 1857-1958, limits assumed, looked up): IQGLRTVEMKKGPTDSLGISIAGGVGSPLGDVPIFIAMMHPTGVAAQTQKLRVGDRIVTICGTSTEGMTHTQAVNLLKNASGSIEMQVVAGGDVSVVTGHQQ

HTRA3, P83110 = target: T7, HTRA3, P83110
T7 sequence (P83110 354-453, limits assumed, looked up): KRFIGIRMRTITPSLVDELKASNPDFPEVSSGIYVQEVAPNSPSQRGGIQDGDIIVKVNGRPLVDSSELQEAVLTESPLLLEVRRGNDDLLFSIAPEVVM

NHERF4_1, Q86UT5-2 = target: NHERF4_1, Q86UT5-2
Inadl_3, Q8NI35 = target: Inadl_3, Q8NI35
PARD3_3, Q8TEW0 = target: PARD3_3, Q8TEW0
FRMPD2_1, Q68DX3 = target: FRMPD2_1, Q68DX3
PCLO, Q9Y6V0 = target: T8, PCLO, Q9Y6V0
T8 sequence (Q9Y6V0 4491-4600, limits assumed, looked up): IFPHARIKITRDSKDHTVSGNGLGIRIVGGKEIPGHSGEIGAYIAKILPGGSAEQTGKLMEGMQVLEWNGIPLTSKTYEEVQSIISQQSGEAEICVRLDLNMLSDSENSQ

LIMK2, P53671 = target: LIMK2, P53671
IL16_3, Q14005 = target: IL16_3, Q14005
GORASP1, Q9BQQ3 = target: GORASP1, Q9BQQ3
FRMPD2_2, Q68DX3 = target: FRMPD2_2, Q68DX3
Inadl_5, Q8NI35 = target: Inadl_5, Q8NI35
GRASP, Q7Z6J2 = target: GRASP, Q7Z6J2
IL16_4, Q14005 = target: IL16_4, Q14005
LNX2_2, Q8N448 = target: T9, LNX2_2, Q8N448
T9 sequence (Q8N448 334-432, limits assumed, looked up): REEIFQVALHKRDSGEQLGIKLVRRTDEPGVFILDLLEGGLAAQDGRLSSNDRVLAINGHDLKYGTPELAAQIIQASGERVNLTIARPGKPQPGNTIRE

SNTG1, Q9NSN8 = target: T10, SNTG1, Q9NSN8
T10 sequence (Q9NSN8 52-150, limits assumed, looked up): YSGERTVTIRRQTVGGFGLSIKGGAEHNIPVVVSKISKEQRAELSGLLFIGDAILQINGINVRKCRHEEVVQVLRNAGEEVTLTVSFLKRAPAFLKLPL

LNX1_3, Q8TBB1 = target: LNX1_3, Q8TBB1
GRIP1_7, Q9Y3R0 = target: T11, GRIP1_7, Q9Y3R0
T11 sequence (Q9Y3R0 999-1096, limits assumed, looked up): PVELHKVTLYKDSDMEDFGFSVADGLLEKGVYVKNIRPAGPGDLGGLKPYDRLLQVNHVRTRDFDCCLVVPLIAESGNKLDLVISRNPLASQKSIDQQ

[1] = plain residues with an end cap or a label only (N-terminal biotin on a linker: ahx)
[2] = plain residues with an end cap or a label only (N-terminal biotin on a linker: ttds)

Measured: pKd

Sequence of DLG5_1, Q8TDM6 (Q8TDM6 617-713): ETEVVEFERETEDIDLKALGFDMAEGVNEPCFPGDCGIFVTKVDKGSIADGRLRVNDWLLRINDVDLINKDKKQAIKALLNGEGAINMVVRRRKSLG
Sequence of PARD3_3, Q8TEW0 (Q8TEW0 582-685): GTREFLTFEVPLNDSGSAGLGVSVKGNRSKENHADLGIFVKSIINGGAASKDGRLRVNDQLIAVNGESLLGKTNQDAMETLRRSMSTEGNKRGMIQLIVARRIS
Sequence of IL16_4, Q14005 (Q14005 1229-1329): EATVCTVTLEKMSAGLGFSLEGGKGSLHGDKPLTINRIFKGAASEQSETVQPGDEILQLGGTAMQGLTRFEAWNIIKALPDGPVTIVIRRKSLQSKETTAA
Sequence of IL16_3, Q14005 (Q14005 1107-1207): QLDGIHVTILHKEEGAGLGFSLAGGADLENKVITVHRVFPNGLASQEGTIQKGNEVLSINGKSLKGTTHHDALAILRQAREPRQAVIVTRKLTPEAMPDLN
Sequence of LIMK2, P53671 (P53671 143-248): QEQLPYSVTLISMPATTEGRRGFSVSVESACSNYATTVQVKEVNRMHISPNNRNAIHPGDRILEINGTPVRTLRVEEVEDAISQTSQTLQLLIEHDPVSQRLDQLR
Sequence of GRASP, Q7Z6J2 (Q7Z6J2 96-193): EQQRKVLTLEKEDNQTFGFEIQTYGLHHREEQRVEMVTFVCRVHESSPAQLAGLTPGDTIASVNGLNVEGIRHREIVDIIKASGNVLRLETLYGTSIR
Sequence of HTRA1, Q92743 (Q92743 360-477): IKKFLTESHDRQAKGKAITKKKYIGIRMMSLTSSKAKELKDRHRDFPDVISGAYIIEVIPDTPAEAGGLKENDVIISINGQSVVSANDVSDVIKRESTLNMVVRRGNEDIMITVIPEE
Sequence of FRMPD4, Q14CM0 (Q14CM0 67-160): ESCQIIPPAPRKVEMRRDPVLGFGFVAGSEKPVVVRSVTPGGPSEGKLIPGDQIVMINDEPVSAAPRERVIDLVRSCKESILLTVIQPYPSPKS
Sequence of NHERF4_1, Q86UT5-2 (Q86UT5 other isoform, or with tags, fused parts or gaps): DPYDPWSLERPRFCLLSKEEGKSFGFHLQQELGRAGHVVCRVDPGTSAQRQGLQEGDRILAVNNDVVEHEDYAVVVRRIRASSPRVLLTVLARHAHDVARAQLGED
Sequence of Inadl_5, Q8NI35 (Q8NI35 673-780): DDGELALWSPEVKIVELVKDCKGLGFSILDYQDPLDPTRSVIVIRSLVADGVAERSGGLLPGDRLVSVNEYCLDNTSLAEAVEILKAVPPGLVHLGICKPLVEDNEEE
Sequence of FRMPD2_2, Q68DX3 (Q68DX3 944-1038): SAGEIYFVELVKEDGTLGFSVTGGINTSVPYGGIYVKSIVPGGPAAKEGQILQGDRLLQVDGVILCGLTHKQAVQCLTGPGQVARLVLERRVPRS
Sequence of Inadl_3, Q8NI35 (Q8NI35 359-469): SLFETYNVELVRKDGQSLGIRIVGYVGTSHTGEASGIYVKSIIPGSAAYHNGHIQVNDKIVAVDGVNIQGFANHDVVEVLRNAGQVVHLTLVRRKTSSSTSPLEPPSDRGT
Sequence of FRMPD2_1, Q68DX3 (Q68DX3 770-861): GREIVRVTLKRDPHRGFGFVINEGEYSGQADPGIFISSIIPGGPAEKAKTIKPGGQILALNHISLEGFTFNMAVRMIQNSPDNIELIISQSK
Sequence of LNX1_3, Q8TBB1 (Q8TBB1 500-596): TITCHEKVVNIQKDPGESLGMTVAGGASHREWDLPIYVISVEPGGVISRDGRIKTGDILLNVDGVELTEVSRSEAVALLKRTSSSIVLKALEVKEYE
Sequence of GORASP1, Q9BQQ3 (Q9BQQ3 1-208): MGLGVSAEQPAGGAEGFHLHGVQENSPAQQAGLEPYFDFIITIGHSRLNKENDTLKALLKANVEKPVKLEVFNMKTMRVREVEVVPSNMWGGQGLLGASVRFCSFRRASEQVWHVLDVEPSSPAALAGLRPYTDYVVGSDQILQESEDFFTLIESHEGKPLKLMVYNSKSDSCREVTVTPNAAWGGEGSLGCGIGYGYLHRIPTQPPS

YNSFLSVTTV [PDZRN3, Q9UPQ7]
3.73: FRMPD2_2, Q68DX3; [1]
4.15: GRASP, Q7Z6J2; [1]
4.2: RADIL, Q96JH8; [1] | HTRA4, P83105; [1]
4.94: LNX2_2, Q8N448; [1]
4.3: HTRA1, Q92743; [1]
below the threshold: DLG5_1, Q8TDM6; [1] | FRMPD4, Q14CM0; [1] | PDZRN3_1, Q9UPQ7; [1] | MPP6, Q9NZW5; [1] | MPDZ_12, O75970; [1] | HTRA3, P83110; [1] | NHERF4_1, Q86UT5-2; [1] | PARD3_3, Q8TEW0; [1] | PCLO, Q9Y6V0; [1] | LIMK2, P53671; [1] | IL16_3, Q14005; [1] | Inadl_5, Q8NI35; [1] | IL16_4, Q14005; [1] | LNX1_3, Q8TBB1; [1] | GRIP1_7, Q9Y3R0; [1]
3.79: SNTG1, Q9NSN8; [1]
3.72: SNTB1, Q13884; [1]
3.8: GORASP1, Q9BQQ3; [1]
3.54: FRMPD2_1, Q68DX3; [1]
3.76: Inadl_3, Q8NI35; [1]

FVETQHQTQV [FAT3, Q8TDW7]
below the threshold: DLG5_1, Q8TDM6; [2] | HTRA1, Q92743; [2] | HTRA4, P83105; [2] | FRMPD4, Q14CM0; [2] | MPP6, Q9NZW5; [2] | MPDZ_12, O75970; [2] | HTRA3, P83110; [2] | NHERF4_1, Q86UT5-2; [2] | Inadl_3, Q8NI35; [2] | PARD3_3, Q8TEW0; [2] | FRMPD2_1, Q68DX3; [2] | PCLO, Q9Y6V0; [2] | LIMK2, P53671; [2] | IL16_3, Q14005; [2] | GORASP1, Q9BQQ3; [2] | Inadl_5, Q8NI35; [2] | IL16_4, Q14005; [2] | LNX1_3, Q8TBB1; [2] | GRIP1_7, Q9Y3R0; [2]
4.27: RADIL, Q96JH8; [2]
3.53: PDZRN3_1, Q9UPQ7; [2]
3.75: LNX2_2, Q8N448; [2]
4.19: SNTB1, Q13884; [2]
4.02: SNTG1, Q9NSN8; [2]
3.97: FRMPD2_2, Q68DX3; [2]
3.69: GRASP, Q7Z6J2; [2]

PKMKLNETSF [SHKBP1, Q8TBC3]
3.68: SNTG1, Q9NSN8; [1]
3.73: NHERF4_1, Q86UT5-2; [1]
below the threshold: DLG5_1, Q8TDM6; [1] | HTRA1, Q92743; [1] | RADIL, Q96JH8; [1] | HTRA4, P83105; [1] | FRMPD4, Q14CM0; [1] | PDZRN3_1, Q9UPQ7; [1] | MPP6, Q9NZW5; [1] | SNTB1, Q13884; [1] | MPDZ_12, O75970; [1] | HTRA3, P83110; [1] | Inadl_3, Q8NI35; [1] | PARD3_3, Q8TEW0; [1] | FRMPD2_1, Q68DX3; [1] | PCLO, Q9Y6V0; [1] | LIMK2, P53671; [1] | IL16_3, Q14005; [1] | GORASP1, Q9BQQ3; [1] | FRMPD2_2, Q68DX3; [1] | Inadl_5, Q8NI35; [1] | IL16_4, Q14005; [1] | LNX2_2, Q8N448; [1] | LNX1_3, Q8TBB1; [1] | GRIP1_7, Q9Y3R0; [1]
3.88: GRASP, Q7Z6J2; [1]

SHSSKGETAV [FZD7, O75084]
3.8: FRMPD2_1, Q68DX3; [2]
below the threshold: DLG5_1, Q8TDM6; [2] | HTRA1, Q92743; [2] | RADIL, Q96JH8; [2] | HTRA4, P83105; [2] | MPP6, Q9NZW5; [2] | MPDZ_12, O75970; [2] | NHERF4_1, Q86UT5-2; [2] | Inadl_3, Q8NI35; [2] | PARD3_3, Q8TEW0; [2] | PCLO, Q9Y6V0; [2] | LIMK2, P53671; [2] | IL16_3, Q14005; [2] | Inadl_5, Q8NI35; [2] | IL16_4, Q14005; [2] | LNX2_2, Q8N448; [2] | LNX1_3, Q8TBB1; [2] | GRIP1_7, Q9Y3R0; [2]
3.48: GORASP1, Q9BQQ3; [2]
4.51: PDZRN3_1, Q9UPQ7; [2]
3.45: GRASP, Q7Z6J2; [2]
3.81: FRMPD2_2, Q68DX3; [2]
4.49: SNTB1, Q13884; [2]
3.52: FRMPD4, Q14CM0; [2]
3.96: HTRA3, P83110; [2]
4.32: SNTG1, Q9NSN8; [2]

SRSRRRETAL [HPV33-E6, P06427]
3.87: FRMPD4, Q14CM0; [2]
3.48: HTRA1, Q92743; [2]
3.49: GRASP, Q7Z6J2; [2]
3.62: SNTG1, Q9NSN8; [2]
5.05: SNTB1, Q13884; [2]
4.42: NHERF4_1, Q86UT5-2; [2]
below the threshold: DLG5_1, Q8TDM6; [2] | RADIL, Q96JH8; [2] | HTRA4, P83105; [2] | MPP6, Q9NZW5; [2] | MPDZ_12, O75970; [2] | HTRA3, P83110; [2] | Inadl_3, Q8NI35; [2] | PARD3_3, Q8TEW0; [2] | PCLO, Q9Y6V0; [2] | LIMK2, P53671; [2] | IL16_3, Q14005; [2] | GORASP1, Q9BQQ3; [2] | FRMPD2_2, Q68DX3; [2] | Inadl_5, Q8NI35; [2] | IL16_4, Q14005; [2] | LNX2_2, Q8N448; [2] | LNX1_3, Q8TBB1; [2] | GRIP1_7, Q9Y3R0; [2]
3.54: FRMPD2_1, Q68DX3; [2]
5.93: PDZRN3_1, Q9UPQ7; [2]
